Here are results for 167 variants from the RNAGym collection of RNA variant scans (doi:10.7554/elife.90254).

Sequences and labels used below:
B1: LINE1-full (parent)
chain: UACGUAGGUGGUUUUCCCCUGAUAGUGCUAAGGGGGCCUGGAAGUUUGGACUGGGCAGAGCUCAACACAGCGUGGCAAAGUGGCUGUGGCUAGACUGCCUCUCUGGAUUCCUCGUCACUCAGCAGGGCAUCUCUGAGAGAAAUGCC

The variants in the series derive from B1. As to the kind of experiment: self-cleavage, relative activity (ratio to wild type); higher = more cleavage; in vitro, sequencing; the parent is a self-cleaving ribozyme.
Consider A50G G55A, for which the self-cleavage was 0.15. The result for A50U A59G reads 0.04; that for A50U A141G, 0.68; that for U47G U130A, 1.23. Under U47C G125U stands 1.39; under G48A A78G, 1.21. Consider G48U U102C, for which the self-cleavage stood at 1.43. Regarding A50G U62G, the self-cleavage was determined as 0.1. For A50G U62A, the self-cleavage was found to be 0.09. Under A50G U62C stands 0.1. With A50G U104A, the self-cleavage stood at 0.85. Regarding U47C G82A, the self-cleavage was determined as 2.09. With U47C U102C, the self-cleavage turned out to be 1.9.

With U47G A69G, the self-cleavage came to 0.67. Consider A50G U85A, for which the self-cleavage amounted to 0.05.

Take A50G U85C: the self-cleavage was 0.1. For the variant G49U U62C, the self-cleavage turned out to be 0.08. Turning to G49U U81C, the self-cleavage worked out at 1.54. As for A50C U87C, the self-cleavage turned out to be 0.13.

Turning to U47G A65G, the self-cleavage is 0.1. The result for G48A A57G reads 0.6. Consider U47C U96A, for which the self-cleavage was determined as 0.1. For G49A U112C, the self-cleavage turned out to be 1.45.

Take A50G A59G: the self-cleavage was determined as 0.26. Turning to A50G A59U, the self-cleavage turned out to be 0.84. Under A50G U143C stands 0.95. As for A50G U143A, the self-cleavage came out at 1.7.

As to G49A A65U, the self-cleavage worked out at 0.04. For the variant U47C G55A, the self-cleavage was 0.65. With A50G A67G, the self-cleavage was determined as 0.37. For G48A U100C, the self-cleavage is 1.9. On to C51U A140G, for which the self-cleavage was 1.09. Under G48A A140U stands 1.28; under A50C A64G, 0.63; under A50C A64U, 0.4.

As for U47C C71A, the self-cleavage stood at 0.68. As for C51U A129U, the self-cleavage stood at 1.63.

U47C U52C: the self-cleavage came out at 1.18.

Consider G48A A50G, for which the self-cleavage stood at 0.53. The result for U47C U119C reads 1.48; that for A50C U132C, 1.02. As to A50G U130C, the self-cleavage was 1.05. With G48A A59G, the self-cleavage was 0.03. As to A50C U85A, the self-cleavage was found to be 0.04.

As to A50C U85C, the self-cleavage stood at 0.06.

For the variant G48U, the self-cleavage came to 0.94.

With G48A, the self-cleavage was 1.28. In the case of G48C, the self-cleavage stood at 1.01. Regarding G49U A94U, the self-cleavage is 0.32.

For the variant U47C G86U, the self-cleavage stood at 0.13.

With U47C G86A, the self-cleavage is 0.06. As to U47C U104A, the self-cleavage was 1.23. For the variant U47C U104C, the self-cleavage was 2.24. For the variant U47C U104G, the self-cleavage is 1.2. The result for A50G A140G reads 0.94; that for A50G A140U, 0.93. As to G49A U52C, the self-cleavage is 1.35. In the case of U52A A107G, the self-cleavage is 0.98. Turning to U47G A138G, the self-cleavage was 0.98.

Take G49U U109C: the self-cleavage came to 0.95.

As to A50G C99U, the self-cleavage was found to be 0.43. Under A50U U134A stands 0.92; under A50U U134C, 0.98; under A50U A94G, 0.29. As to G48A U73A, the self-cleavage came to 1.36. The result for G49A U108C reads 1.54; that for C51U C131A, 1.23; that for A50U A65G, 0.06. The result for A50G G114A reads 0.98; that for A50G A64C, 0.37.

Turning to A50G A64G, the self-cleavage worked out at 0.42. The result for A50G A64U reads 0.39; that for G49A U119C, 0.62; that for G49A U115C, 1.33. As to G49C U115C, the self-cleavage was 2.02. On to U47C G144A, for which the self-cleavage was found to be 1.44.

With C51U U104A, the self-cleavage came out at 1.02.

As for G49A U85C, the self-cleavage amounted to 0.1. As to A50U U87A, the self-cleavage turned out to be 0.1.

As to A50U U87C, the self-cleavage was found to be 0.23. Under G48U A136G stands 1.19. Consider A50G G74A, for which the self-cleavage stood at 0.48. Consider A50U U52A, for which the self-cleavage was 1.17. For the variant A50U U52C, the self-cleavage came to 0.89.

G48A U62A: the self-cleavage is 0.02. Turning to U52A A77G, the self-cleavage worked out at 2.06. Take G49A A138G: the self-cleavage is 1.11. For U47C C51U, the self-cleavage was found to be 1.14.

A50C U109C: the self-cleavage was 0.97.

Regarding A50G C95A, the self-cleavage came out at 0.05. A50G C95U: the self-cleavage came to 0.03. Consider U47C U87C, for which the self-cleavage came to 0.48. Under A50G U134C stands 0.86; under A50G U134G, 0.19; under A50G A121C, 1.23. Regarding G48U U132C, the self-cleavage came out at 1.12. The result for U47G A92G reads 0.17; that for G49U U134A, 1.19; that for G49U U134C, 1.63. With G49U C95G, the self-cleavage turned out to be 0.04.

As for U47C C120U, the self-cleavage came out at 1.72.

On to U47C U112A, for which the self-cleavage was 1.02.

U47C U112C: the self-cleavage was found to be 2. Under A50U U85C stands 0.14; under U52A A64U, 0.46; under U47C C90G, 0.04.

As for A50G G97A, the self-cleavage stood at 0.06.

For G49U G127A, the self-cleavage worked out at 0.27.

As to A50G A124G, the self-cleavage was 0.51. Regarding A50G A124U, the self-cleavage worked out at 0.79. As for C51U U62A, the self-cleavage stood at 0.07. As for G48A U87C, the self-cleavage came to 0.12. On to C51U A142C, for which the self-cleavage was 1.25.

C51U A142G: the self-cleavage worked out at 1.7. A50G C145A: the self-cleavage is 1.05. U47C U91A: the self-cleavage is 0.97.

Consider G49A U100C, for which the self-cleavage amounted to 1.96.

In the case of G48U G125A, the self-cleavage is 1.17. For U47C U85C, the self-cleavage came out at 0.24.

As for U47C U85A, the self-cleavage worked out at 0.13. In the case of U47G A57G, the self-cleavage is 0.62. As for A50U A69U, the self-cleavage was determined as 0.07. For the variant A50C A94G, the self-cleavage amounted to 0.

In the case of U47C G75A, the self-cleavage came out at 1.95. G48A U52A: the self-cleavage amounted to 1.22. On to G49A A64U, for which the self-cleavage turned out to be 0.33. A50G U132A: the self-cleavage turned out to be 1.34. As for A50G U132G, the self-cleavage is 1.15. Under A50G U115C stands 1.42.

Consider A50G U115A, for which the self-cleavage worked out at 0.95. For A50U G74U, the self-cleavage is 1.04. The result for A50G A92G reads 0.19; that for G49C U130C, 1.67; that for U47C A142C, 1.3. Under A50U A124U stands 1.11; under A50U U102A, 1.63.

A50U U102C: the self-cleavage stood at 1.17.

Regarding U52A A67G, the self-cleavage was 0.38. Turning to U52A A67U, the self-cleavage is 0.05.

Consider A50U C66U, for which the self-cleavage worked out at 0.01. Take G49A C133G: the self-cleavage is 1.39. For A50U G54U, the self-cleavage turned out to be 0.66. G49A U62C: the self-cleavage worked out at 0.03. For U47C C84A, the self-cleavage is 0.15. On to U47G U62A, for which the self-cleavage came to 0.03. The result for A50U U143A reads 1.47; that for A50G C118U, 0.71; that for A50C A136C, 2.04. Turning to U47C C131U, the self-cleavage was 1.91. On to C51U U119C, for which the self-cleavage worked out at 1.73. Take U47C U100C: the self-cleavage came to 2.49. For the variant A50C A142G, the self-cleavage was determined as 1.78. Under G48U U108C stands 1.27; under G48A A124U, 1.02; under G48A A124G, 0.92. On to A50G G122U, for which the self-cleavage was 1.09. The result for G48A G55U reads 0.19.

Turning to U47G A64G, the self-cleavage was 0.23. For G49A G72A, the self-cleavage was determined as 1.45. Take A50C A124G: the self-cleavage stood at 1.29.

Turning to U47C U81G, the self-cleavage was found to be 1.13.

As for U47C U81A, the self-cleavage turned out to be 2.45. The result for C51U C145G reads 1.28; that for G48A A64U, 0.39; that for U47G C111U, 1.62. The result for G48A A92G reads 0.09; that for A50U U100A, 0.31.
